Results taken from patent US8536230B2, “Methods for regulating gelation of polysaccharide solutions and uses thereof” (University of Virginia Patent Foundation, priority 2006, dated 2013).

Assay: In vitro release of FITC-dextran / FITC-albumin from chitosan-AHP gels in PBS
Format: physicochemical
Details: FITC albumin loaded (1, 2, and 3%) gels, PBS 37° C.
Experimental: FITC dextran loaded samples (0.5×1 cm) were placed in histology cups and incubated in 50 mL PBS at 37° C. in a shaking water bath. At predetermined time points, 5 mL of the release media was removed and replenished with 5 mL of PBS. The FITC dextran concentration was determined spectrophotometrically and the percentage cumulative release was calculated. The three groups include 1% dextran, 0.5% dextran, and 0.5% dextran diluted. (see FIG. 8A).
For FITC-dextran loading, appropriate amounts (0.5, 1, and 5% w/v) of FITC-dextrans were dissolved in chitosan-AHP solutions. The respective dextran loaded solutions were poured into petri dishes and allowed to set at 37° C. for 12 h. Circular discs (8 mm diameter) were bored from the thermo-gelled films for in vitro release studies. […] The FITC-dextran concentration in the release media were determined spectrophotometrically at 491 nm and the percentage cumulative release was calculated based on the total FITC-D content. Statistical significance (p<0.05) was determined using one way ANOVA.
Also tested was the release profile of FITC-labeled bovine serum albumin from chitosan-AHP gels represented as the percentage cumulative release. […] The FITC albumin concentration was determined spectrophotometrically and the percentage cumulative release was calculated. […]

FITC-albumin: FITC-labeled bovine serum albumin loaded in chitosan-AHP gels
percentage cumulative release profile: significantly lower compared to FITC-Dextran
